Data from the supplement of paper PMC10065799, “High-throughput profiling of sequence recognition by tyrosine kinases and SH2 domains using bacterial peptide display” (eLife, 2023).

Key:
Fes = Fes (UniProt P07332); experiment: phosphorylation enrichment, bacterial display (enrichment ratio); higher = better substrate or ligand; peptides without Tyr show the background
EPHB1 = EPHB1 (UniProt P54762); experiment: as above
Fyn = Fyn (UniProt P06241); experiment: as above
MERTK = MERTK (UniProt Q12866); experiment: as above
Sequence of MERTK (Q12866 whole entry, looked up): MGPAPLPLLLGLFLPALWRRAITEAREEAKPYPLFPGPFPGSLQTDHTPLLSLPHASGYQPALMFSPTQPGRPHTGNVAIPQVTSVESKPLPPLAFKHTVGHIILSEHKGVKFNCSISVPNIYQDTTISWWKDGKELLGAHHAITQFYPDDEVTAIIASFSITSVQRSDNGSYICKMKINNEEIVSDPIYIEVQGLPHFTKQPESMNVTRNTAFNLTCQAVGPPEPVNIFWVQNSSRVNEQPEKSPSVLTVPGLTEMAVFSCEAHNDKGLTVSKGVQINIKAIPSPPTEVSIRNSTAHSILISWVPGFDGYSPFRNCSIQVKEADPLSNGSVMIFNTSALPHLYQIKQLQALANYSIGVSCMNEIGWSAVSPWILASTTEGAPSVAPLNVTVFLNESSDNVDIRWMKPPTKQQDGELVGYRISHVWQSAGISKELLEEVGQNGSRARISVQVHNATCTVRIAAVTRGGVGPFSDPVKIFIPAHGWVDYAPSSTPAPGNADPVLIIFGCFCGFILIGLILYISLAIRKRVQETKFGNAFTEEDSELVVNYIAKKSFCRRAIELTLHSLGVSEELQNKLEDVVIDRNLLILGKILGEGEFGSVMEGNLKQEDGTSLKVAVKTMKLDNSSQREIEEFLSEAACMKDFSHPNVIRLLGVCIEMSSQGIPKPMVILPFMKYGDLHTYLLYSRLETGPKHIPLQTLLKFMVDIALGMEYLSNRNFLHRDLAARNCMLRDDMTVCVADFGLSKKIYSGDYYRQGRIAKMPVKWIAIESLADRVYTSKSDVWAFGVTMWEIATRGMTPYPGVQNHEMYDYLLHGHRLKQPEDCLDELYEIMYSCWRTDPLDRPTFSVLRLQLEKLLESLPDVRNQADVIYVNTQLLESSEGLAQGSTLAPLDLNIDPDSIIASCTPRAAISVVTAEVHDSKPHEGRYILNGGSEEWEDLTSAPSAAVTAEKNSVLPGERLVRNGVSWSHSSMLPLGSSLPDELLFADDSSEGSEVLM

AncSZ = experiment: as above
Jak2 = Jak2 (UniProt O60674); experiment: as above
c-Src = experiment: as above
Hck = Hck (UniProt P08631); experiment: as above
Sequence of Hck (P08631 whole entry, looked up): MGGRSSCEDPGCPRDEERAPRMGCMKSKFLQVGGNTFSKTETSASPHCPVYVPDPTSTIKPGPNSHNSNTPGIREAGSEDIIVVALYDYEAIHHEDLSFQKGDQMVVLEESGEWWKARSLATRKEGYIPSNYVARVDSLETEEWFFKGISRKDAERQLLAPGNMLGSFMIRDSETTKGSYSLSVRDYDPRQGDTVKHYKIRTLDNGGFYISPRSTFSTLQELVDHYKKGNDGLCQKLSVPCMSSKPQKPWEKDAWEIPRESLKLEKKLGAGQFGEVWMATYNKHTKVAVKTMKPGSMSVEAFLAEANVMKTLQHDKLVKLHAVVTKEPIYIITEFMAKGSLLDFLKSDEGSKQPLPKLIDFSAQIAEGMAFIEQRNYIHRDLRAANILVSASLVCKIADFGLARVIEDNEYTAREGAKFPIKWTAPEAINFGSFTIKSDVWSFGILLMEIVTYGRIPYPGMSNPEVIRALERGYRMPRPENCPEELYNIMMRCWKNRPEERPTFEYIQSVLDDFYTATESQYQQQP

FGFR3 = FGFR3 (UniProt P22607); experiment: as above
Sequence of FGFR3 (P22607 whole entry, looked up): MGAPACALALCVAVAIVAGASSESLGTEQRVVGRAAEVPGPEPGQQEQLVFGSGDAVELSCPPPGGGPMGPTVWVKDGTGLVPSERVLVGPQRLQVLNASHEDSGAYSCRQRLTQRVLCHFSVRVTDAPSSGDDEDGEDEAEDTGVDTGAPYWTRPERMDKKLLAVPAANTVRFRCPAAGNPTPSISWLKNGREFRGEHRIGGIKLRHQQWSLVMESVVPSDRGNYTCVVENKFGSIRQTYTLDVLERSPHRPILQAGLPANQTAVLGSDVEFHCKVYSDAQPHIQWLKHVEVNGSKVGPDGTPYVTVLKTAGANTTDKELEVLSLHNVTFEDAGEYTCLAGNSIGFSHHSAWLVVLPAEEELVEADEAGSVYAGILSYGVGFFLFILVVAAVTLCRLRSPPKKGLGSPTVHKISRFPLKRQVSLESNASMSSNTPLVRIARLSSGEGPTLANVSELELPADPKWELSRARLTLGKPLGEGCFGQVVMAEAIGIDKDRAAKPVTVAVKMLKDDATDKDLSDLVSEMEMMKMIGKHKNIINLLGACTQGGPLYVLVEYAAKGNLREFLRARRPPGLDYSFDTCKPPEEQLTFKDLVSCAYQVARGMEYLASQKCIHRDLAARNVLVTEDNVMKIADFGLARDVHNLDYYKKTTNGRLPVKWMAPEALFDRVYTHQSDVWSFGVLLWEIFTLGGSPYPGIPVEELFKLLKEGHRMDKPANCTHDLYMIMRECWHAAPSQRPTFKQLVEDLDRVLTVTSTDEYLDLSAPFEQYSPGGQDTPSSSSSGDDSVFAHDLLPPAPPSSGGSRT

EPHB2 = EPHB2 (UniProt P29323); experiment: as above
Sequence of EPHB2 (P29323 whole entry, looked up): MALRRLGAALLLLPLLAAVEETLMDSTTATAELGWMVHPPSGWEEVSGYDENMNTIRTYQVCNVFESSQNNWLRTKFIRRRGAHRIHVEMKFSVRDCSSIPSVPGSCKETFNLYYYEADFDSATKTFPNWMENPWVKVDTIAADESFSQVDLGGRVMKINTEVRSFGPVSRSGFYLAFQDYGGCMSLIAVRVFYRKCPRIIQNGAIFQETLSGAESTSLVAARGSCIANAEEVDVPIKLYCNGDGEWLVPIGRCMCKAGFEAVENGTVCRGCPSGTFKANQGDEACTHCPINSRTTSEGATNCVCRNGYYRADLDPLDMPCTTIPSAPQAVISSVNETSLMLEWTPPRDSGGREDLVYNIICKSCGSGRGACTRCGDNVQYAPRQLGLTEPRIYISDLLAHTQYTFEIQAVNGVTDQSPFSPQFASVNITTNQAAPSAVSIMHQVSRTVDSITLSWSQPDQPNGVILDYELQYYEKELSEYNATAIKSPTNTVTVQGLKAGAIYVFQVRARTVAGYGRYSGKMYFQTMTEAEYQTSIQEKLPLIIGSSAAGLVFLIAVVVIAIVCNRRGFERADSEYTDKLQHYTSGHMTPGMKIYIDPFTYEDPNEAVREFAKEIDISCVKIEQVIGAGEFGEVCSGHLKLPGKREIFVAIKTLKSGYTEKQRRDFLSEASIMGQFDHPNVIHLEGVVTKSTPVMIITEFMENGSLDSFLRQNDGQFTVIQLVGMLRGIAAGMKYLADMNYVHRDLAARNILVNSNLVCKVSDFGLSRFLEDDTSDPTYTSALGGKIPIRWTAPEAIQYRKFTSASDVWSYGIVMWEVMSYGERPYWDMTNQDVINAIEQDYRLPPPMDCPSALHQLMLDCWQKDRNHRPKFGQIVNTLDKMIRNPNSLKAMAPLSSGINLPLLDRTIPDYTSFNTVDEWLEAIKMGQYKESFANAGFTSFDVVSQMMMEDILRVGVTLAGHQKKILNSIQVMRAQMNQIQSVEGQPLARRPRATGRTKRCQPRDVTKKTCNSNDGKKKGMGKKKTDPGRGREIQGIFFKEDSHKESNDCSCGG

FGFR1 = FGFR1 (UniProt P11362); experiment: as above
Fer (mouse) = experiment: as above
c-Abl (mouse) = experiment: as above
Grb2 SH2 = Grb2 SH2 (UniProt P62993); experiment: SH2 binding enrichment of the phosphorylated peptide, bacterial display (enrichment ratio); higher = better substrate or ligand; peptides without Tyr show the background
SHP2-C SH2 = experiment: as above
c-Src SH2 = experiment: as above
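For SH2 binding enrichment of the phosphorylated peptide, bacterial display in this document: peptide library displayed on the E. coli surface as eCPX fusions, selected cells deep-sequenced, score is each peptide's frequency after selection divided by its frequency in the input.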
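For phosphorylation enrichment, bacterial display in this document: 11-residue human phosphosite peptides and single-mutation variants displayed on the E. coli surface, counted by deep sequencing, each peptide's frequency after selection divided by its frequency in the unselected input library; frequency after pTyr selection over input frequency; kinase dosed for 20-30% of maximal phosphorylation in three min.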

Sequence of Fyn (P06241 whole entry, looked up): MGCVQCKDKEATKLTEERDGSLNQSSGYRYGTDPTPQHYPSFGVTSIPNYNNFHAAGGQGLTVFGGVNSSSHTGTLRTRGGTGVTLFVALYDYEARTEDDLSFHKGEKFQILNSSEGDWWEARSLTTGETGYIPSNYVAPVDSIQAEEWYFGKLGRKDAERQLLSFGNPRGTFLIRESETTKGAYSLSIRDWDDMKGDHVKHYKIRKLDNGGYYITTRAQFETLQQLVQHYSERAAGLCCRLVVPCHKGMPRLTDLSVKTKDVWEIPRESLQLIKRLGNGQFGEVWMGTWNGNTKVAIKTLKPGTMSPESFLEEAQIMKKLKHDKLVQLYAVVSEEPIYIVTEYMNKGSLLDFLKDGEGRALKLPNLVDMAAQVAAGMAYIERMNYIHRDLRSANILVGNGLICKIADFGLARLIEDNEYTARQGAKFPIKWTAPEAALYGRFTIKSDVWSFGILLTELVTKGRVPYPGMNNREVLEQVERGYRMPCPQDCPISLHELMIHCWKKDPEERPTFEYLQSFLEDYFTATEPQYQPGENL
Sequence of EPHB1 (P54762 whole entry, looked up): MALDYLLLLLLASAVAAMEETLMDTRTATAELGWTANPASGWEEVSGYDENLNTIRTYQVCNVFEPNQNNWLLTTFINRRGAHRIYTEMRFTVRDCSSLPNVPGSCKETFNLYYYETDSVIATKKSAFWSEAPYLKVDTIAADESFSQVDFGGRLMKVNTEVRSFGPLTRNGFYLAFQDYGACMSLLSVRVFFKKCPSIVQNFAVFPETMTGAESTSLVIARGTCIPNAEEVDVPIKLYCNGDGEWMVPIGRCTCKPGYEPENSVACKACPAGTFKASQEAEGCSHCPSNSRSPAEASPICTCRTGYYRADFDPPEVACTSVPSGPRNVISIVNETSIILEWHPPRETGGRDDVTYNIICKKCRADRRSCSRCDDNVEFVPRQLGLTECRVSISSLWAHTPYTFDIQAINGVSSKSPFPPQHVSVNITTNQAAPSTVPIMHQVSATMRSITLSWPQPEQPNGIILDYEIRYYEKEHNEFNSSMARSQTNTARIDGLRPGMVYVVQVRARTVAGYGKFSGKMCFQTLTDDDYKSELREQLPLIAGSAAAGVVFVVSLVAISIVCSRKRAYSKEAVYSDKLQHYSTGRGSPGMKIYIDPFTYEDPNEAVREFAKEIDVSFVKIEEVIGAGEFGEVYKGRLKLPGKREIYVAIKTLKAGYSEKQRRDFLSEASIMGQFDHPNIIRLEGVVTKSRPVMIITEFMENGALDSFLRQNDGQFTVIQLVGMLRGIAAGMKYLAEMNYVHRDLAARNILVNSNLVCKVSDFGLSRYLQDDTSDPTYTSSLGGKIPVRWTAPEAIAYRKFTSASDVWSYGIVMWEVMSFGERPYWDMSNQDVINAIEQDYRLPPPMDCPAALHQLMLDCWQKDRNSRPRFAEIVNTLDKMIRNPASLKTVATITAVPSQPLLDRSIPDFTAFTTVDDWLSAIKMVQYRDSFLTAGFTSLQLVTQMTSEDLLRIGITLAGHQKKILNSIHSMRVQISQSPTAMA

Row | Sequence | phosphorylation enrichment (Fes) | phosphorylation enrichment (EPHB1) | phosphorylation enrichment (Fyn) | phosphorylation enrichment (MERTK) | phosphorylation enrichment (AncSZ) | phosphorylation enrichment (Jak2) | phosphorylation enrichment (c-Src) | phosphorylation enrichment (Hck) | phosphorylation enrichment (FGFR3) | phosphorylation enrichment (EPHB2) | phosphorylation enrichment (FGFR1) | phosphorylation enrichment (Fer (mouse)) | phosphorylation enrichment (c-Abl (mouse)) | SH2 binding enrichment (Grb2 SH2) | SH2 binding enrichment (SHP2-C SH2) | SH2 binding enrichment (c-Src SH2)
1 | LARDMDDKEYY [MET_Y1230_Y1230D] | 1.64 | 0.828 | 0.691 | 0.489 | 1.87 | 1.37 | 0.531 | 0.723 | 1.19 | 1.13 | 0.867 | 0.643 | 1.2 | 0.742 | 0.716 | 0.759
2 | LATINYPFEKG [NDUFS8_Y84_P79L] | 0.914 | 0.565 | 0.421 | 0.377 | 0.827 | 0.642 | 0.467 | 0.401 | 0.576 | 0.484 | 0.503 | 0.5 | 0.64 | 1.09 | 0.628 | 0.557
3 | LDAFIYNAAVL [GRIN2A_Y730_D731N] | 2.08 | 1.3 | 4.57 | 0.704 | 1.72 | 0.874 | 2.32 | 4.05 | 1.62 | 1.57 | 2.36 | 1.95 | 0.972 | 0.927 | 0.761 | 0.5
4 | LEDDMYRKTCT [XPA_Y257] | 2.56 | 1.15 | 1.78 | 0.848 | 2.07 | 1.56 | 0.624 | 0.984 | 1.67 | 1.03 | 1.24 | 1.37 | 1.17 | 1.04 | 0.738 | 0.524
5 | LEIETDRRLLD [KRT12_Y429_Y429D] | 3.18 | 1.13 | 1.29 | 0.93 | 2.31 | 2.8 | 1.41 | 1.08 | 1.4 | 1.03 | 1.35 | 1.06 | 2.64 | 1 | 1.11 | 0.538
6 | LEIETYPRLLD [KRT12_Y429_R430P] | 1.87 | 0.802 | 0.599 | 0.461 | 1.3 | 1.85 | 0.772 | 0.41 | 1.06 | 0.953 | 0.787 | 0.646 | 1.1 | 0.826 | 0.65 | 0.498
7 | LEIETYRRLRD [KRT12_Y429_L433R] | 1.25 | 0.533 | 0.658 | 0.834 | 0.859 | 1.23 | 0.672 | 0.674 | 0.809 | 0.559 | 0.645 | 0.351 | 0.659 | 0.754 | 0.725 | 0.471
8 | LESTLYESSVV [TRPV4_Y91] | 2.34 | 1.41 | 1.26 | 1.21 | 1.94 | 2.15 | 1.83 | 1.6 | 1.47 | 1.35 | 1.31 | 9.02 | 1.45 | 0.708 | 0.861 | 0.448
9 | LFDPDYMKVIL [CYP4A22_Y104_YF] | 4.91 | 1.42 | 0.675 | 0.502 | 1.76 | 1.23 | 0.675 | 0.759 | 1.44 | 1.43 | 1.5 | 1.2 | 0.958 | 0.775 | 0.564 | 0.392
10 | LFMGDYVDRGF [PPP2CA_Y86_YF] | 0.963 | 0.961 | 0.814 | 0.396 | 0.95 | 0.696 | 0.61 | 0.673 | 0.943 | 1.19 | 0.822 | 0.546 | 0.616 | 1.04 | 0.577 | 0.54
11 | LGKLTYPVGFW [NTHL1_Y177_I176T] | 2.06 | 1.12 | 1.14 | 0.889 | 2.42 | 2.04 | 1.35 | 1.23 | 1.48 | 1.65 | 1.31 | 1.32 | 1.32 | 0.904 | 1.02 | 0.478
12 | LGQRIYQFIRS [DYRK1B_Y271_Q275R_YF] | 1.19 | 9.19 | 1.86 | 6.97 | 1.3 | 0.887 | 2.83 | 6.17 | 1.21 | 2.54 | 1.39 | 5.51 | 0.98 | 1.38 | 1.07 | 2.21
13 | LHSDHYSPSGR [TMPRSS12_Y23_Y19H] | 0.585 | 0.431 | 0.778 | 0.617 | 1.79 | 0.414 | 0.503 | 0.851 | 0.871 | 0.672 | 0.485 | 0.746 | 0.569 | 0.995 | 0.557 | 0.637
14 | LIDSSYLTRTA [GREB1L_Y1063] | 0.668 | 0.43 | 0.571 | 0.527 | 0.748 | 0.651 | 0.489 | 0.425 | 0.44 | 0.746 | 0.507 | 0.905 | 0.634 | 0.844 | 0.714 | 0.426
15 | LIGRRYDDPEV [HSPA9_Y128] | 2.17 | 1.11 | 0.836 | 0.889 | 2.69 | 1.35 | 1.27 | 0.707 | 0.9 | 1.63 | 0.643 | 0.809 | 1.25 | 0.674 | 0.5 | 0.822
16 | LIHLHYIRRDY [BBS4_Y43_K46R] | 0.773 | 0.334 | 0.389 | 0.524 | 0.952 | 0.562 | 0.388 | 0.47 | 0.759 | 0.526 | 0.417 | 0.41 | 0.524 | 1.52 | 1.17 | 0.763
17 | LITTLYIGFLD [KCNQ1_Y267_G272D] | 3.12 | 1.25 | 2.56 | 0.929 | 2.56 | 3.07 | 4.15 | 1.71 | 1.35 | 1.16 | 0.777 | 1.78 | 2.36 | 1.09 | 0.906 | 0.744

Row | Sequence | phosphorylation enrichment (Fes) | phosphorylation enrichment (EPHB1) | phosphorylation enrichment (Fyn) | phosphorylation enrichment (MERTK) | phosphorylation enrichment (AncSZ) | phosphorylation enrichment (Jak2) | phosphorylation enrichment (c-Src) | phosphorylation enrichment (Hck) | phosphorylation enrichment (FGFR3) | phosphorylation enrichment (EPHB2) | phosphorylation enrichment (FGFR1) | phosphorylation enrichment (Fer (mouse)) | phosphorylation enrichment (c-Abl (mouse)) | SH2 binding enrichment (Grb2 SH2) | SH2 binding enrichment (SHP2-C SH2) | SH2 binding enrichment (c-Src SH2)
18 | LITTLYISFLG [KCNQ1_Y267_G269S] | 1.98 | 0.852 | 0.913 | 0.902 | 1.47 | 2.27 | 1.56 | 1.15 | 1.06 | 0.784 | 0.71 | 0.757 | 1.64 | 0.872 | 0.621 | 0.838
19 | LITTPYIGFLG [KCNQ1_Y267_L266P] | 1.35 | 0.449 | 0.782 | 0.554 | 0.834 | 0.983 | 1.35 | 0.473 | 0.641 | 0.5 | 0.616 | 0.667 | 0.528 | 0.781 | 2.18 | 0.492
20 | LKFAIYFEVRE [LAMA2_Y1258_A1261V_YF] | 1.72 | 0.652 | 0.414 | 0.808 | 1.65 | 2.52 | 0.831 | 0.569 | 1.08 | 0.483 | 0.556 | 0.932 | 1.74 | 0.877 | 1.11 | 0.653
21 | LKGQVYILVRE [ASS1_Y359_G362V] | 1.36 | 0.682 | 0.343 | 0.375 | 1.43 | 1.14 | 0.334 | 0.454 | 0.982 | 0.652 | 0.481 | 0.328 | 0.921 | 0.878 | 0.896 | 0.525
22 | LKKLEYLNLAL [LRRC6_Y70] | 1.43 | 0.81 | 0.408 | 0.296 | 1.05 | 1.23 | 0.367 | 0.489 | 1.14 | 0.987 | 1.36 | 0.549 | 0.574 | 2.59 | 1.49 | 0.424
23 | LKLIQYHLIQQ [AKAP4_Y554_T557I] | 1.67 | 0.95 | 0.553 | 0.774 | 1.2 | 1.4 | 0.582 | 0.659 | 0.924 | 0.737 | 0.687 | 0.544 | 1.16 | 1.51 | 4.15 | 2.22
24 | LKYAIYFEARE [LAMA2_Y1258] | 2.41 | 1.59 | 1.21 | 0.907 | 2.42 | 3.01 | 1.49 | 1.67 | 1.64 | 1.4 | 0.938 | 0.822 | 1.94 | 0.907 | 0.793 | 0.449
25 | LLARLYRGQAL [FGFR4_Y390_G388R] | 0.887 | 0.713 | 0.795 | 0.442 | 0.9 | 0.823 | 0.489 | 0.519 | 0.592 | 0.477 | 0.529 | 0.507 | 0.937 | 0.827 | 0.512 | 0.461
26 | LLLLFYVVRYC [MPZ_Y177] | 0.738 | 0.359 | 0.463 | 0.54 | 0.722 | 0.735 | 0.492 | 0.438 | 0.436 | 0.345 | 0.415 | 0.468 | 0.574 | 1.77 | 1.53 | 1.33
27 | LLREWYLPDPY [SIX3_Y225_Q227P] | 1.14 | 0.541 | 0.477 | 0.351 | 0.888 | 1.04 | 0.49 | 0.484 | 0.816 | 0.473 | 0.636 | 0.409 | 0.969 | 1.58 | 1.09 | 1.1
28 | LLREWYLQDPF [SIX3_Y225_YF] | 1.73 | 0.557 | 0.564 | 0.567 | 1.43 | 1.52 | 0.788 | 0.509 | 0.784 | 0.765 | 0.941 | 0.661 | 1.15 | 1.42 | 2.31 | 0.978
29 | LLRFLYFFVCS [SLC34A2_Y109_G106R] | 1.59 | 0.606 | 0.519 | 0.744 | 0.948 | 1.69 | 0.587 | 0.704 | 1.22 | 0.585 | 0.72 | 0.573 | 0.697 | 2.1 | 1.96 | 1.73
30 | LLRLAYLADIF [ZBED5_Y476] | 1.02 | 0.69 | 0.457 | 0.432 | 0.872 | 0.99 | 0.419 | 0.54 | 0.636 | 0.677 | 0.64 | 0.745 | 0.765 | 1.9 | 1.61 | 1.34
31 | LMQAEYWHDPI [PPT1_Y185_V181M] | 1.56 | 1.2 | 0.835 | 0.557 | 1.36 | 1.16 | 0.54 | 0.769 | 4.42 | 0.863 | 6.07 | 0.773 | 0.724 | 0.999 | 0.68 | 0.983
32 | LNAGAYSKVVE [PPT1_Y172_Q177E] | 0.664 | 0.431 | 0.306 | 0.448 | 0.447 | 0.541 | 0.523 | 0.411 | 0.378 | 0.416 | 0.436 | 0.551 | 0.46 | 0.758 | 1.08 | 2.03
33 | LNCDRYSVGLL [PDE6A_Y275] | 1.59 | 0.961 | 0.734 | 0.709 | 1.16 | 1.2 | 0.823 | 0.889 | 1.2 | 1.51 | 0.712 | 0.898 | 0.929 | 0.873 | 0.527 | 0.588
